For two molecules, Kd results are on record in PMC9166773, “Latrophilin-2 is a novel receptor of LRG1 that rescues vascular and neurological abnormalities and restores diabetic erectile function” (Experimental & Molecular Medicine, 2022).

T1: LPHN2 Lec-Olf domains (F26-P394) (UniProt O95490 26-394)
T1 construct: LPHN2 (ADGRL2) lectin and olfactomedin-like domains, residues F26-P394; Both Fc-tagged and tag-free forms were made; source: Expi293F, purified (protein A resin; tag-free form by on-resin thrombin digestion; Superdex 200)
T1 sequence (looked up): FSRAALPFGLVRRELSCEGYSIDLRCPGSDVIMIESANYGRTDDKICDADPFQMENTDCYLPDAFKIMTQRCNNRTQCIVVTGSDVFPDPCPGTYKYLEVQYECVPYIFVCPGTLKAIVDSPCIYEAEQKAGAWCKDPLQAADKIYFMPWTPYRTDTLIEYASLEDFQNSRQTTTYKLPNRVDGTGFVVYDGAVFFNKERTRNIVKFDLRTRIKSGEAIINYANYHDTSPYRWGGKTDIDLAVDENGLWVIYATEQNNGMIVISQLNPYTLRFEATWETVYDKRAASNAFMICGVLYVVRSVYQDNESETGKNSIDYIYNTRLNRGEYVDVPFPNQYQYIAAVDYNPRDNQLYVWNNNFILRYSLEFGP

B1: LPHN2 Olf domain (V135-P394) (domain or fragment, UniProt O95490 135-394, looked up)
chain: VCPGTLKAIVDSPCIYEAEQKAGAWCKDPLQAADKIYFMPWTPYRTDTLIEYASLEDFQNSRQTTTYKLPNRVDGTGFVVYDGAVFFNKERTRNIVKFDLRTRIKSGEAIINYANYHDTSPYRWGGKTDIDLAVDENGLWVIYATEQNNGMIVISQLNPYTLRFEATWETVYDKRAASNAFMICGVLYVVRSVYQDNESETGKNSIDYIYNTRLNRGEYVDVPFPNQYQYIAAVDYNPRDNQLYVWNNNFILRYSLEFGP
notes: LPHN2 (ADGRL2) olfactomedin-like domain, residues V135-P394; Both Fc-tagged and tag-free forms were made; also called olfactomedin-like domain; source: Expi293F, purified (protein A resin; tag-free form by on-resin thrombin digestion; Superdex 200)
B2: Leucine-rich alpha-2-glycoprotein 1 (LRG1), recombinant tag-free human LRG1 (ligand, UniProt P02750 36-347, looked up)
chain: VTLSPKDCQVFRSDHGSSISCQPPAEIPGYLPADTVHLAVEFFNLTHLPANLLQGASKLQELHLSSNGLESLSPEFLRPVPQLRVLDLTRNALTGLPPGLFQASATLDTLVLKENQLEVLEVSWLHGLKALGHLDLSGNRLRKLPPGLLANFTLLRTLDLGENQLETLPPDLLRGPLQLERLHLEGNKLQVLGKDLLLPQPDLRYLFLNGNKLARVAAGAFQGLRQLDMLDLSNNSLASVPEGLWASLGQPNWDMRDGFDISGNPWICDQNLSDLYRWLQAQKDKMFSQNDTRCAGPEAVKGQTLLAVAKSQ
notes: human LRG1, residues V36-Q347; In the TriCEPS capture LRG1 was coupled to the TriCEPS reagent; Residues of the thrombin site may remain after cleavage; also called recombinant LRG1; soluble LRG1; not shown: Fc (human IgG), C-terminal, cleaved

Test [1] concerns the target B2. Put plainly: solid-phase binding assay; LRG1 and recombinant extracellular domains of LPHN2 (and Lec/Olf of LPHN1, LPHN3); who was immobilised and conditions not told in the text shown. As to conditions: both partners purified.
For test [2], the target named is T1, LPHN2 Lec-Olf domains (F26-P394). The test is described as above. As to conditions: both partners purified.

Take B1: the Kd (as a rule, the concentration at which binding is half-saturated) in test [1] is 920 nM.

With B2, the Kd in test [2] worked out at 890 nM.
